Source: patent publication US20140341917A1 (Merck KGaA, published 2014)

How the values were obtained:
human PD-L1 [1] = target: T1, human PD-L1 (human, UniProt Q9NZQ7 19-238, limits assumed); experiment: Biacore kinetic profile
T1 construct: Protein used in the Biacore assays of 3.1

human PD-L1 [2] = target: T1, human PD-L1; experiment: Biacore; relative to A09-188-1

T1 sequence (Q9NZQ7 19-238 limits assumed): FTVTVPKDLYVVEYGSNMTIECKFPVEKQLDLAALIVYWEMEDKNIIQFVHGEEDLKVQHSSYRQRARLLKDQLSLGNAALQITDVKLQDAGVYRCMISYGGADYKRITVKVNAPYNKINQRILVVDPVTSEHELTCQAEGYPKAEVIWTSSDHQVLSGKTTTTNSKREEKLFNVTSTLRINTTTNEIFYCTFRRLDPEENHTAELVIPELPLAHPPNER

Binder | Kd (human PD-L1 [1]) [nM] | t½ (human PD-L1 [1]) [h] | Relative KD (human PD-L1 [2])
A09-202-1 (antibody, human IgG1, lambda, V domains shown, also called VL-A31G) VH: EVQLLESGGGLVQPGGSLRLSCAASGFTFSMYMMMWVRQAPGKGLEWVSSIYPSGGITFYADSVKGRFTISRDNSKNTLYLQMNSLRAEDTAIYYCARIKLGTVTTVDYWGQGTLVTVSS VL: QSALTQPASVSGSPGQSITISCTGTSSDVGGYNYVSWYQQHPGKAPKLMIYDVSNRPSGVSNRFSGSKSGNTASLTISGLQAEDEADYYCSSYTSSSTRVFGTGTKVTVLG | 4.15 | 0.313 | 0.78
A09-211-1 (antibody, human IgG1, lambda, V domains shown, 193V read as I93V; also called VH-M31I, M33L, M35F, S63T, 193V) VH: EVQLLESGGGLVQPGGSLRLSCAASGFTFSIYLMFWVRQAPGKGLEWVSSIYPSGGITFYADTVKGRFTISRDNSKNTLYLQMNSLRAEDTAVYYCARIKLGTVTTVDYWGQGTLVTVSS VL: QSALTQPASVSGSPGQSITISCTGTSSDVGAYNYVSWYQQHPGKAPKLMIYDVSNRPSGVSNRFSGSKSGNTASLTISGLQAEDEADYYCSSYTSSSTRVFGTGTKVTVLG | – | 1.82 | –
A09-212-1 (antibody, human IgG1, lambda, V domains shown, 193V read as I93V; also called VH-M33I, M35F, S63T, 193V) VH: EVQLLESGGGLVQPGGSLRLSCAASGFTFSMYIMFWVRQAPGKGLEWVSSIYPSGGITFYADTVKGRFTISRDNSKNTLYLQMNSLRAEDTAVYYCARIKLGTVTTVDYWGQGTLVTVSS VL: QSALTQPASVSGSPGQSITISCTGTSSDVGAYNYVSWYQQHPGKAPKLMIYDVSNRPSGVSNRFSGSKSGNTASLTISGLQAEDEADYYCSSYTSSSTRVFGTGTKVTVLG | – | 4.24 | –
A09-213-1 (antibody, human IgG1, lambda, V domains shown, 193V read as I93V; also called VH-M31I, M35F, S63T, 193V) VH: EVQLLESGGGLVQPGGSLRLSCAASGFTFSIYMMFWVRQAPGKGLEWVSSIYPSGGITFYADTVKGRFTISRDNSKNTLYLQMNSLRAEDTAVYYCARIKLGTVTTVDYWGQGTLVTVSS VL: QSALTQPASVSGSPGQSITISCTGTSSDVGAYNYVSWYQQHPGKAPKLMIYDVSNRPSGVSNRFSGSKSGNTASLTISGLQAEDEADYYCSSYTSSSTRVFGTGTKVTVLG | 2.51 | 0.462 | 0.47
A09-220-1 (antibody, human IgG1, lambda, V domains shown, also called VH-M31S, M33L, M35F, S63T, I93V) VH: EVQLLESGGGLVQPGGSLRLSCAASGFTFSSYLMFWVRQAPGKGLEWVSSIYPSGGITFYADTVKGRFTISRDNSKNTLYLQMNSLRAEDTAVYYCARIKLGTVTTVDYWGQGTLVTVSS VL: QSALTQPASVSGSPGQSITISCTGTSSDVGAYNYVSWYQQHPGKAPKLMIYDVSNRPSGVSNRFSGSKSGNTASLTISGLQAEDEADYYCSSYTSSSTRVFGTGTKVTVLG | – | 1.14 | –
A09-223-1 (antibody, human IgG1, lambda, V domains shown, also called VH-M31S, M35F, S63T, I93V) VH: EVQLLESGGGLVQPGGSLRLSCAASGFTFSSYMMFWVRQAPGKGLEWVSSIYPSGGITFYADTVKGRFTISRDNSKNTLYLQMNSLRAEDTAVYYCARIKLGTVTTVDYWGQGTLVTVSS VL: QSALTQPASVSGSPGQSITISCTGTSSDVGAYNYVSWYQQHPGKAPKLMIYDVSNRPSGVSNRFSGSKSGNTASLTISGLQAEDEADYYCSSYTSSSTRVFGTGTKVTVLG | 3.62 | 0.225 | 0.68
A09-239-2 (antibody, human IgG1, lambda, V domains shown, also called VL-A31G; VH-M31I, M33L, M35F, S63T, I93V) VH: EVQLLESGGGLVQPGGSLRLSCAASGFTFSIYLMFWVRQAPGKGLEWVSSIYPSGGITFYADTVKGRFTISRDNSKNTLYLQMNSLRAEDTAVYYCARIKLGTVTTVDYWGQGTLVTVSS VL: QSALTQPASVSGSPGQSITISCTGTSSDVGGYNYVSWYQQHPGKAPKLMIYDVSNRPSGVSNRFSGSKSGNTASLTISGLQAEDEADYYCSSYTSSSTRVFGTGTKVTVLG | – | 2 | –
A09-243-2 (antibody, human IgG1, lambda, V domains shown, also called VL-A31G; VH-M31I, M33L, S63T, I93V) VH: EVQLLESGGGLVQPGGSLRLSCAASGFTFSIYLMMWVRQAPGKGLEWVSSIYPSGGITFYADTVKGRFTISRDNSKNTLYLQMNSLRAEDTAVYYCARIKLGTVTTVDYWGQGTLVTVSS VL: QSALTQPASVSGSPGQSITISCTGTSSDVGGYNYVSWYQQHPGKAPKLMIYDVSNRPSGVSNRFSGSKSGNTASLTISGLQAEDEADYYCSSYTSSSTRVFGTGTKVTVLG | – | 1.42 | –
A09-245-2 (antibody, human IgG1, lambda, V domains shown, also called VL-A31G; VH-M31S, M33L, M35F, S63T, I93V) VH: EVQLLESGGGLVQPGGSLRLSCAASGFTFSSYLMFWVRQAPGKGLEWVSSIYPSGGITFYADTVKGRFTISRDNSKNTLYLQMNSLRAEDTAVYYCARIKLGTVTTVDYWGQGTLVTVSS VL: QSALTQPASVSGSPGQSITISCTGTSSDVGGYNYVSWYQQHPGKAPKLMIYDVSNRPSGVSNRFSGSKSGNTASLTISGLQAEDEADYYCSSYTSSSTRVFGTGTKVTVLG | – | 1.29 | –

Continued, values first:

Kd (human PD-L1 [1]) [nM] | t½ (human PD-L1 [1]) [h] | Relative KD (human PD-L1 [2]) | Binder
0.1 | 9.64 | 0.02 | A09-204-1 (antibody, human IgG1, lambda, V domains shown, positions counted from the N-terminus of the chain; also called VH-M31I, M33I, M35F, S63T, I93V) VH: EVQLLESGGGLVQPGGSLRLSCAASGFTFSIYIMFWVRQAPGKGLEWVSSIYPSGGITFYADTVKGRFTISRDNSKNTLYLQMNSLRAEDTAVYYCARIKLGTVTTVDYWGQGTLVTVSS VL: QSALTQPASVSGSPGQSITISCTGTSSDVGAYNYVSWYQQHPGKAPKLMIYDVSNRPSGVSNRFSGSKSGNTASLTISGLQAEDEADYYCSSYTSSSTRVFGTGTKVTVLG
0.4 | 2.98 | 0.08 | A09-214-1 (antibody, human IgG1, lambda, V domains shown, 193V read as I93V; also called VH-M31I, M33I, S63T, 193V) VH: EVQLLESGGGLVQPGGSLRLSCAASGFTFSIYIMMWVRQAPGKGLEWVSSIYPSGGITFYADTVKGRFTISRDNSKNTLYLQMNSLRAEDTAVYYCARIKLGTVTTVDYWGQGTLVTVSS VL: QSALTQPASVSGSPGQSITISCTGTSSDVGAYNYVSWYQQHPGKAPKLMIYDVSNRPSGVSNRFSGSKSGNTASLTISGLQAEDEADYYCSSYTSSSTRVFGTGTKVTVLG
1.28 | 0.843 | 0.24 | A09-215-1 (antibody, human IgG1, lambda, V domains shown, 193V read as I93V; also called VH-M33L, M35F, S63T, 193V) VH: EVQLLESGGGLVQPGGSLRLSCAASGFTFSMYLMFWVRQAPGKGLEWVSSIYPSGGITFYADTVKGRFTISRDNSKNTLYLQMNSLRAEDTAVYYCARIKLGTVTTVDYWGQGTLVTVSS VL: QSALTQPASVSGSPGQSITISCTGTSSDVGAYNYVSWYQQHPGKAPKLMIYDVSNRPSGVSNRFSGSKSGNTASLTISGLQAEDEADYYCSSYTSSSTRVFGTGTKVTVLG
0.91 | 1.3 | 0.17 | A09-216-1 (antibody, human IgG1, lambda, V domains shown, 193V read as I93V; also called VH-M31I, M33L, S63T, 193V) VH: EVQLLESGGGLVQPGGSLRLSCAASGFTFSIYLMMWVRQAPGKGLEWVSSIYPSGGITFYADTVKGRFTISRDNSKNTLYLQMNSLRAEDTAVYYCARIKLGTVTTVDYWGQGTLVTVSS VL: QSALTQPASVSGSPGQSITISCTGTSSDVGAYNYVSWYQQHPGKAPKLMIYDVSNRPSGVSNRFSGSKSGNTASLTISGLQAEDEADYYCSSYTSSSTRVFGTGTKVTVLG
0.18 | 4.64 | 0.03 | A09-219-1 (antibody, human IgG1, lambda, V domains shown, also called VH-M31S, M33I, M35F, S63T, I93V) VH: EVQLLESGGGLVQPGGSLRLSCAASGFTFSSYIMFWVRQAPGKGLEWVSSIYPSGGITFYADTVKGRFTISRDNSKNTLYLQMNSLRAEDTAVYYCARIKLGTVTTVDYWGQGTLVTVSS VL: QSALTQPASVSGSPGQSITISCTGTSSDVGAYNYVSWYQQHPGKAPKLMIYDVSNRPSGVSNRFSGSKSGNTASLTISGLQAEDEADYYCSSYTSSSTRVFGTGTKVTVLG
1.24 | 0.785 | 0.23 | A09-222-1 (antibody, human IgG1, lambda, V domains shown, also called VH-M31S, M33L, S63T, I93V) VH: EVQLLESGGGLVQPGGSLRLSCAASGFTFSSYLMMWVRQAPGKGLEWVSSIYPSGGITFYADTVKGRFTISRDNSKNTLYLQMNSLRAEDTAVYYCARIKLGTVTTVDYWGQGTLVTVSS VL: QSALTQPASVSGSPGQSITISCTGTSSDVGAYNYVSWYQQHPGKAPKLMIYDVSNRPSGVSNRFSGSKSGNTASLTISGLQAEDEADYYCSSYTSSSTRVFGTGTKVTVLG
0.16 | 4.1 | 0.03 | A09-240-2 (antibody, human IgG1, lambda, V domains shown, also called VL-A31G; VH-M33I, M35F, S63T, I93V) VH: EVQLLESGGGLVQPGGSLRLSCAASGFTFSMYIMFWVRQAPGKGLEWVSSIYPSGGITFYADTVKGRFTISRDNSKNTLYLQMNSLRAEDTAVYYCARIKLGTVTTVDYWGQGTLVTVSS VL: QSALTQPASVSGSPGQSITISCTGTSSDVGGYNYVSWYQQHPGKAPKLMIYDVSNRPSGVSNRFSGSKSGNTASLTISGLQAEDEADYYCSSYTSSSTRVFGTGTKVTVLG
0.32 | 2.77 | 0.07 | A09-241-2 (antibody, human IgG1, lambda, V domains shown, also called VL-A31G; VH-M31I, M33I, S63T, I93V) VH: EVQLLESGGGLVQPGGSLRLSCAASGFTFSIYIMMWVRQAPGKGLEWVSSIYPSGGITFYADTVKGRFTISRDNSKNTLYLQMNSLRAEDTAVYYCARIKLGTVTTVDYWGQGTLVTVSS VL: QSALTQPASVSGSPGQSITISCTGTSSDVGGYNYVSWYQQHPGKAPKLMIYDVSNRPSGVSNRFSGSKSGNTASLTISGLQAEDEADYYCSSYTSSSTRVFGTGTKVTVLG
0.76 | 0.927 | 0.16 | A09-242-2 (antibody, human IgG1, lambda, V domains shown, also called VL-A31G; VH-M33L, M35F, S63T, I93V) VH: EVQLLESGGGLVQPGGSLRLSCAASGFTFSMYLMFWVRQAPGKGLEWVSSIYPSGGITFYADTVKGRFTISRDNSKNTLYLQMNSLRAEDTAVYYCARIKLGTVTTVDYWGQGTLVTVSS VL: QSALTQPASVSGSPGQSITISCTGTSSDVGGYNYVSWYQQHPGKAPKLMIYDVSNRPSGVSNRFSGSKSGNTASLTISGLQAEDEADYYCSSYTSSSTRVFGTGTKVTVLG
0.12 | 4.66 | 0.03 | A09-244-2 (antibody, human IgG1, lambda, V domains shown, also called VL-A31G; VH-M31S, M33I, M35F, S63T, I93V) VH: EVQLLESGGGLVQPGGSLRLSCAASGFTFSSYIMFWVRQAPGKGLEWVSSIYPSGGITFYADTVKGRFTISRDNSKNTLYLQMNSLRAEDTAVYYCARIKLGTVTTVDYWGQGTLVTVSS VL: QSALTQPASVSGSPGQSITISCTGTSSDVGGYNYVSWYQQHPGKAPKLMIYDVSNRPSGVSNRFSGSKSGNTASLTISGLQAEDEADYYCSSYTSSSTRVFGTGTKVTVLG
0.76 | 0.963 | 0.16 | A09-247-2 (antibody, human IgG1, lambda, V domains shown, also called VL-A31G; VH-M31S, M33L, S63T, I93V) VH: EVQLLESGGGLVQPGGSLRLSCAASGFTFSSYLMMWVRQAPGKGLEWVSSIYPSGGITFYADTVKGRFTISRDNSKNTLYLQMNSLRAEDTAVYYCARIKLGTVTTVDYWGQGTLVTVSS VL: QSALTQPASVSGSPGQSITISCTGTSSDVGGYNYVSWYQQHPGKAPKLMIYDVSNRPSGVSNRFSGSKSGNTASLTISGLQAEDEADYYCSSYTSSSTRVFGTGTKVTVLG
